Experimental data reported in the supplement of paper PMC10567573.
± gives the standard deviation.

Assay: protein stability index of a GFP-peptide fusion (GPS, HEK-293T) (PSI 1-6); higher = more stable
Settings: c terminus: a fixed tail appended
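Note: 24-mer peptide tiles fused after GFP, lentivirally expressed, FACS-sorted into six equal bins by GFP/DsRed ratio, decoded by Illumina sequencing, PSI is the read-weighted mean bin number.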

Sequence	protein stability index (treatment: DMSO)	protein stability index (treatment: MLN4924 1 uM, 8 h)
HQEAEMAQNAVRLHYGLPVVVKLL [CTNNB1]	2.58 ± 0.18	2.62 ± 0.21
HQGHSDQHHHHHHHHHGRDFLLRA [RHOBTB2]	3.45 ± 0.11	3.65 ± 0.24
HRMVVKIGDFGISKILSSKSKAYT [NEK8]	2.33 ± 0.084	2.14 ± 0.12
HRRRTICGTPNYLSPEVLNKQGHG [PLK2]	3.99 ± 0.19	4.17 ± 0.17
HSSPVDLKIPQVRGMDLSWESRTG [LCOR]	3.43 ± 0.33	3.65 ± 0.31
HSVLQIRYSGKILKNNETLVQHGV [IQUB]	2.09 ± 0.035	2.31 ± 0.28
HTDIKPENILMCVDDAYVRRMAAE [SRPK2]	4 ± 0.22	4.07 ± 0.27
HTQVLPDVRLLPRRLPLAFRDATS [DYRK1B]	2.84 ± 0.32	3.04 ± 0.22
HVIHIIDFGLAKEYIDPETKKHIP [CSNK1G1]	1.99 ± 0.29	2.16 ± 0.087
HVKKLQQKVATLEKRNRQLRERVK [CCDC3]	3.72 ± 0.26	4 ± 0.61
IADRAAHDESPGNNVVDISVPPTT [RAB11B]	5.43 ± 0.24	5.21 ± 0.13
IAKNLVEKGILTTEKQNFLLFDMT [GOLPH3L]	2.06 ± 0.18	2.15 ± 0.22
ICCWSFYGQGRKIAEVCCTSIVYA [KCTD10]	2.98 ± 0.44	3.44 ± 0.54
IEKEVFPIMAKEGQLYAMELQGFW [GMPPB]	2.77 ± 0.44	2.27 ± 0.37
IELDRTIMPDGTIVTTVTTVQSRP [C2CD2L]	2.1 ± 0.14	2.09 ± 0.23
IEQDAVVPSEWLSSVYKQQWFAML [GMCL1]	2.26 ± 0.098	2.78 ± 0.3
IFDEDHDEMVIVKDIDMFSMCEHH [GCH1]	3.16 ± 0.24	3.31 ± 0.13
IFGSNKWTTEQQQRFHEICSNLVK [ARL6IP1]	2.98 ± 0.13	3.03 ± 0.14
IGMPFNQLGTLAGSKYYNVEAMYC [SMG5]	2.36 ± 0.51	2.27 ± 0.3
IGSSVMAASLVTMGIVNLNIHMNF [SLC2A12]	3.05 ± 0.24	3.13 ± 0.17
IHGFPWWPARVLDISLGQKEDGEP [PWWP2B]	3.05 ± 0.18	3.54 ± 0.4
IHLREDLVQDQDLEAIRKQDLVEL [ZER1]	4.5 ± 0.096	4.56 ± 0.28

Sequence	protein stability index (treatment: DMSO)	protein stability index (treatment: MLN4924 1 uM, 8 h)
IHPDEDISLEERRAQLPKYQRNLP [ZNF207]	4.19 ± 0.27	4.46 ± 0.31
IIELLGSIPRHFALSGKYSREFFN [SRPK2]	2.75 ± 0.54	2.56 ± 0.39
IIVRTTNKKYYKKFSIPDLDRHQL [DPCD]	2.29 ± 0.55	2.14 ± 0.29
IKDKEAPLHVAQTRLYLRSHRPNM [TEKT4]	3.23 ± 0.25	3.23 ± 0.25
IKGLQRKERLKPAHIHLQQLTCFS [KRT34]	2.3 ± 0.39	2.36 ± 0.37
IKPPPPLVLNSQQSDTLEQREEHE [RAD54B]	5.23 ± 0.13	5.3 ± 0.34
ILGSGEEGPQVGPSAAQTLRSFCA [ADAMTS4]	3.7 ± 0.5	3.95 ± 0.53
ILLSKEPDGVWAYNRGEHPIFVNS [SMAD6]	2.2 ± 0.19	2.44 ± 0.2
INHLLKSPFSVHPKTGRISVPIDL [PRIM1]	2.06 ± 0.21	2.48 ± 0.17
IQSRVQELHPESGEEAVTLVEDMQ [ZNF263]	5.42 ± 0.18	5.44 ± 0.11
IREEGRCSSSDDDTDVDMEGLRRR [PBXIP1]	5.37 ± 0.25	5.42 ± 0.36
IRLTQYIDGQGRPRTSQSEETRVW [CAMK2B]	3.13 ± 0.3	3.16 ± 0.14
ISEAFSQRVGFGDDFDEDELMAEL [CHMP4C]	4.86 ± 0.32	5.07 ± 0.2
ISEEGHHYLIFDLVTGGELFEDIV [CAMK2A]	2.47 ± 0.62	2.13 ± 0.29
ISENLDYEETGFYEIEIQAEDGGA [PCDHGA10]	4.74 ± 0.18	4.7 ± 0.2
ISLINTRMLFWACSTNKPEGYRVS [FAF2]	2.5 ± 0.61	2.35 ± 0.39
ISLWPREPPPKSGPSLVPGKTPTV [CD207]	3.06 ± 0.18	3.43 ± 0.084
ITSETTSTTTTTHITKTVKGGISE [EPB41L3]	5.06 ± 0.22	4.69 ± 0.79
IVIADVKLVADFQRYILYWRKRFT [ZNF277]	2.48 ± 0.57	2.48 ± 0.46
IVTKFYQLSATGQKLYVRLFQRKL [FAN1]	3.6 ± 0.98	2.57 ± 0.51
IVWSLAFGSSVPEKQSRCVNIEWH [WSB1]	2.92 ± 0.36	2.93 ± 0.21
IWLAESVLDILTEQREWVLKSSIL [INTS3]	2.88 ± 0.82	2.6 ± 0.84

Sequence	protein stability index (treatment: DMSO)	protein stability index (treatment: MLN4924 1 uM, 8 h)
IYQGEDLPHPKSMLQATAEANNLA [ATL3]	4.25 ± 0.23	4.332 ± 0.041
KAAALPPFPLGASAQNGLASSLPA [PLAGL1]	3.75 ± 0.21	3.82 ± 0.21
KAPKKDVIKMLVNDNKVLRYLAVL [EFHC1]	2.65 ± 0.49	2.44 ± 0.58
KCFHEIITIGYRVYHSYDLPWFRT [CDS1]	2.88 ± 0.49	2.87 ± 0.56
KDAYVQKLVKVCNGHDCWSLISLS [TENT5D]	2.43 ± 0.41	2.14 ± 0.26
KEEAQAEIEQYRLQREKEFKAKEA [ATP6V1G1]	5.5 ± 0.21	5.58 ± 0.38
KEEKCQGKGDDSETDKNNCSNAKA [KCNA4]	5.49 ± 0.088	5.55 ± 0.19
KEILRTLQDVFCWLPLATLIDEKV [PPEF2]	2.46 ± 0.25	3.03 ± 0.57
KETLRLHPDIFLPSEICDRLVNEY [ZER1]	2.82 ± 0.39	2.83 ± 0.21
KFMLREQFEANGYFFKRPYPFVLF [KMT2E]	3.41 ± 0.39	2.73 ± 0.97
KFSGLYILSFTVIMVGFILYCSTP [SLC35F2]	3.22 ± 0.4	3.17 ± 0.24
KFSPFGQWWASVGMDDFLGVYSMP [TLE6]	2.62 ± 0.67	2.35 ± 0.4
KGAVPRSIPNLAEVKKKGKMKKLG [HDAC6]	4.51 ± 0.36	4.35 ± 0.5
KHPRQTLEVINLLRKHRELCDVVL [KLHL20]	2.34 ± 0.43	2.17 ± 0.25
KKKTKVLKQRTVIEMFKSITHSTV [EHMT1]	2.44 ± 0.35	2.19 ± 0.47
KKNWRRVYKSLLLLAYLIRNGSER [CLINT1]	2.35 ± 0.65	2.44 ± 0.29
KKREKQREQMEQMKQRIAEENIMK [FAM50A]	4.8 ± 0.18	4.78 ± 0.41
KKRFTRRSHLIGHQRTHSEEETYK [ZNF449]	4.12 ± 0.42	4.23 ± 0.46
KKRKVDGLSTEAEQPFIPVEVLVD [PRAME]	3.8 ± 0.52	4.04 ± 0.27
KKTVHYYAELGQCSVFPATDAPEQ [PLK2]	3.6 ± 0.27	3.64 ± 0.31
KLRGPEPAATEAYGSGDTPGGPCD [TBX6]	5.35 ± 0.21	5.28 ± 0.31
